Assay: yeast display, Sf9 membrane polyspecificity reagent, FACS + sequencing; frameworks hold sequencing errors
Summary of the method: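 Nanobodies from a synthetic yeast display library (Saccharomyces cerevisiae BJ5465), induced 36–48 hours with galactose, were stained 1 hour at 4 °C with 10% biotinylated, detergent-solubilized Sf9 membrane reagent, enriched on streptavidin microbeads, then FACS-sorted. Anti-HA (expression) and streptavidin (reagent binding) fluorescence set low and high (top ~1%) gates. Polyreactivity labels come from the gate of origin. Genes were colony-PCR amplified, MiSeq 2 × 250 sequenced and filtered by CDR length.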

| Sequence | polyreactivity (PSR sort gate) |
| --- | --- |
| QVQLVESGGGLVQAGGSLRLSCAASGSTFYNYAMGWYRPAPGNERELVAAIDTGGSTNYADSVKGRFTISRDNAKNTVYFQMNSLKPEVTALDYCNTVYLYGTHDYWGQGTQVTVSS | low polyreactivity |
| QVQLVESGGGLVQAGGSLRLSCAASGSTFYNYAMGWYRQAPGKEREFVAAITRSGGSTYYADSVKGRFSISRDNAKNTVYLQMNSLKPEDTAVYYCNAGGHWYYHRYRGYYWGQGTQVTVSS | high polyreactivity |
| QVQLVESGGGLVQAGGSLRLSCAASGSTFYNYAMGWYRQAPGKERELVAAIRNGGGTNYADSVKGRFTISRDNAKITVYLQMNSLKPEDTAVYYCNKAYGVSGPGVDYWGQGTQVTVSS | low polyreactivity |
| QVQLVESGGGLVQAGGSLRLSCAASGSTFYNYAMGWYRQAPGKERELVAAIRNGGGTNYADSVKGRFTISRDNAKNTVYLQMNSLKPEDTAVYYFNKAYGVSGPGVDYWGQGTQVTVSS | low polyreactivity |
| QVQLVESGGGLVQAGGSLRLSCAASGSTFYNYVMGWYRQAPAKERELVAAITSRGGRTYYADSVKGRFTISRDNAKNTVSLQMNSLKPEDTAVYYCARDRGYQSGYDYWGQGTQVTVSS | high polyreactivity |
| QVQLVESGGGLVQAGGSLRLSCAASGSTFYPNAMGWYRQAPGKERELVAAITTSGGSTYYADSVKGRCTISRDNAKNTVYLQMNSLKPEDTAVYYCAAEVRDRGWEPYGPIYDYWGQGTQVTVSS | high polyreactivity |
| QVQLVESGGGLVQAGGSLRLSCAASGSTFYPNARGWYRQAPGKERELVAAISWSGGRTYYADSEKGRFTISRDNAKNTVYLQMNSLKPEDTAVYYCYRYHRTSGRAKYDYWGQGTQVTVSS | high polyreactivity |
| QVQLVESGGGLVQAGGSLRLSCAASGSTFYPYAMGWYRQAPGKERELVAAISSRDGRTYYADSVKGRFTISRDNAKNTVYLQMNSLKPEDTAVYYCAASSFNNGHRYDYWGQGTQVTVSS | high polyreactivity |
| QVQLVESGGGLVQAGGSLRLSCAASGSTFYPYAMGWYRQAPGKERELVAAITYSGGSTYYADSVKGRFTISRDNAKNTVYLQMNSLKPDDTAVYYCATPYFSTPRVRGFDYWGQGTQVTVSS | low polyreactivity |
| QVQLVESGGGLVQAGGSLRLSCAASGSTFYPYAMGWYRQAPGKERELVAGISWSGGSTYYADSVKGRFTISRDNAKNTVYLQMNSLKPEDTAVYSCAVDVYWSVIYDYWGQGTQVTVSS | low polyreactivity |
| QVQLVESGGGLVQAGGSLRLSCAASGSTFYPYAMGWYRQAPGTEREFVAAITWSGGSTYYADSVKGRFTISRDNAKNTVYLQMNSLKPDDTAVYYCNAVVATSKYTDYYWGQGTQVTVSS | low polyreactivity |
| QVQLVESGGGLVQAGGSLRLSCAASGSTFYPYGMGWYRQAPGNERELVAAITDSGGSTYYADSVKGRFTISRDNAKNTVYLQMNSLKPEDTAVYYCAKTYWYPWRASLWHEYDYWGQGTQVTVSS | low polyreactivity |
| QVQLVESGGGLVQAGGSLRLSCAASGSTFYQYAMGWYRQAPGKERELVAVITGSGGSTYYADSVKGRFTISRDNAKNTVYLQMNSLKPEDTAVYYCAAGARYFIYRTTSLGGNYWGQGTQVTVSS | high polyreactivity |
| QVQLVESGGGLVQAGGSLRLSCAASGSTFYRNALGWYRQAPGKERELVARISSRGGRTSYADSVKGRFTISRDNAKNTVYFQMNSLKPEDTAVYYCAADYYVNRIQRYDYWGQGTQVTVSS | high polyreactivity |
| QVQLVESGGGLVQAGGSLRLSCAASGSTFYRNAMGAYRQAPGKDREFVAAISFRGGGTYADSVKGRCTISRDNANNTVYLQMNSLKPEDTAVYYCAADHLSYRRRYEYWGQGTQVTVSS | low polyreactivity |
| QVQLVESGGGLVQAGGSLRLSCAASGSTFYRNAMGWYRPAPGKERELVAAISQRGGRTYYADSVKGRFTISRDNAKNTVYLQMNSLKPEDTAVYYCNKFRGINHLYDMNYWGQGTQVTVSS | high polyreactivity |
| QVQLVESGGGLVQAGGSLRLSCAASGSTFYRNAMGWYRQAPGKEREFVADITLGGGSTYYADSVKGRFTISRDNAKNTVYLQMNSLTPEDTAVYYCAVVYWQLNYDYWGQGTQVTVSS | low polyreactivity |
| QVQLVESGGGLVQAGGSLRLSCAASGSTFYRNAMGWYRQAPGKERELVAAINSTDSTNYADSVKGLFTISRDNAKNTVYLQMNSLKPEDTAVYYCAAVGDNLATAEYDYWGQGTQVTLSS | low polyreactivity |
| QVQLVESGGGLVQAGGSLRLSCAASGSTFYRNAMGWYRQAPGKERELVAAISRGSRTYYADSVKGRFTISRDNAKNTVYLQMNSLKPEDTAVYNCAARAGARDTLHDYWGQGTQVTVSS | high polyreactivity |
| QVQLVESGGGLVQAGGSLRLSCAASGSTFYRNAMGWYRQAPGKERELVAVISISDGSTYADSVKGRFTISRDNAKNTVYLQMNSLKPEDTAVYYCAKVLNPLDYYDFDYWGQGTQVTVSS | low polyreactivity |
| QVQLVESGGGLVQAGGSLRLSCAASGSTFYRYAMAWYRPAPGKERELVAAITRGGGRTYYADSVKGRFTISRDNAKNTVYLQMNSLKPEDTAVYYCNSASPYYDSWGQGTQVTVSS | high polyreactivity |
| QVQLVESGGGLVQAGGSLRLSCAASGSTFYRYAMGWYRQAPGKERELVAAISRGGGRTNYADSVKGRFTISRDNAKNTVYLQMNSLKPEDTAVYYCAADDTYTRYDYWGQGTQVTVSS | high polyreactivity |

| Sequence | polyreactivity (PSR sort gate) |
| --- | --- |
| QVQLVESGGGLVQAGGSLRLSCAASGSTFYSNAMGWYRQAPGKERELVAAINYSGGRTYYADSVKGRFTLSRDNAKNTVYLQMNSLKPEDTAVYYCNAQFYNVRGYYIGEYWGQGTQVTVSS | high polyreactivity |
| QVQLVESGGGLVQAGGSLRLSCAASGSTFYSYAIGWYRQAPGKERELVADISYSDGSTYYADSVKGRFTISRDYAKNTVYLQMNSLKPEDTAVYYCDAYALSYFKIMDYWGQGTQVTVSS | low polyreactivity |
| QVQLVESGGGLVQAGGSLRLSCAASGSTFYSYAMGWSRQAPGKERELVARISGSGGSTYYADSVKGRFTISRDTAKNTVYLQMNSLKPEDPAVYYCAADDIYKYYQYYAFPYYRYDYWGQGTQVTVSS | low polyreactivity |
| QVQLVESGGGLVQAGGSLRLSCAASGSTFYSYAMGWYRQAPGKERELVAAISWDGGLTYYADSVKGRFTISRDTAKNTVYLQMNSLKPEDTAVYYCAAAYPTYRHYYWGQGTQVTVSS | low polyreactivity |
| QVQLVESGGGLVQAGGSLRLSCAASGSTFYSYAMGWYRQAPGKERELVAAITKGGGSTYYADSVKGRFTISRDNAKNTVYLQMNSLKPEDTAVYYCAAPGLYWYYTRSGYDYWGQGTQVTVSS | high polyreactivity |
| QVQLVESGGGLVQAGGSLRLSCAASGSTFYSYVMGWYRQAPGKERELVAVISNDGSTNYADSVKGRFTISRDNAKNTVYLQMNSLKPEDTAVYYCNAEWTRDFYEYDYWGQGTQVTVSS | low polyreactivity |
| QVQLVESGGGLVQAGGSLRLSCAASGSTFYTNAMGLYRQAPGKERELVAAISWSAGSTYYADSVKGRFTISRDNAKNTVYLQMNSLKPEDTAVYYCAAYYWYKWGYKYGYWGQGTQVTVSS | high polyreactivity |
| QVQLVESGGGLVQAGGSLRLSCAASGSTFYTNAMGWYTQAPGKERELVAAISGSGGSTYYADSVKGRFTISRDNAKNTVYLQMNSLKPEDTAVYYCAARSRYYDTRFDYWGQGTQVTVSS | low polyreactivity |
| QVQLVESGGGLVQAGGSLRLSCAASGSTFYTNTMGWYRQAPGKERELVADINGSGGSTYYADSVKGRFTISRDNAKNTVYLQMNSLKPEDTAVYYCAAGSWQVAIRYDYWGQGTQVTVSS | low polyreactivity |
| QVQLVESGGGLVQAGGSLRLSCAASGSTFYTYAMGWYRQAPGKEMELVAAIRSAGSTYYADSVKGRFTISRDNAKNTVYLQMNSLKPEDTAVYYCNTVARSSVGYEYWGQGTQVTVSS | high polyreactivity |
| QVQLVESGGGLVQAGGSLRLSCAASGSTFYTYAMGWYRQAPGKERELVAAITSGGSTYYADSVKGRFTISRDNAKNTVYLQMNSLKPEDTAVYYCAARPYPHSAYEGDYWGRGTQVTVSS | low polyreactivity |
| QVQLVESGGGLVQAGGSLRLSCAASGSTFYTYAMGWYRQAPGKERELVAAITYSGGTTYYADSVKGRFTISRDNAKNTVYLQMNSLKPEDTAVYYCNTRSYYYSDDYWGQGTQVTVSS | low polyreactivity |
| QVQLVESGGGLVQAGGSLRLSCAASGSTFYTYDMGWYRQAPGKERELVASITSGGSTNYADSVKGRFTISRDNAKNTVYLQMNSLKPEDTAVYYCAVGTYTIYSGTLYDYKYYWGQGTQVTVSS | low polyreactivity |
| QVQLVESGGGLVQAGGSLRLSCAASGSTFYTYTMGWYRQAPGKERELVAAISSRGVSTYYADSVKGRFTISRDNAKNTVYLQMNSLKPEDTAVYYCAVSRIVDFGQKMYYWGQGTQVTVSS | high polyreactivity |
| QVQLVESGGGLVQAGGSLRLSCAASGSTFYTYTMGWYRQAPGKERELVAAISSSGGDTYYADSVKGRFTISRDNAKNTVYLQMNSLKPEDTAVYYCAALGAFPSLEFDYWGQGTQVTVSS | low polyreactivity |
| QVQLVESGGGLVQAGGSLRLSCAASGSTFYVNAMGSYRKAPGKEMEFVAAITWNSGSTYYADSVKGRFTISRDNANYTVYLQMNSLKPEDTAVYYCAAVLSVRDYGYDYWGQGTQVTVSS | low polyreactivity |
| QVQLVESGGGLVQAGGSLRLSCAASGSTFYVNAMGWYRQAPGKERELVAAITKSGGNTYYADSVKGRFTISRDNAKNTVYLQMNSLKPEDTAVYYCAKKYPRDMDYWGQGTQVTVSS | high polyreactivity |
| QVQLVESGGGLVQAGGSLRLSCAASGSTFYVNAMGWYRQAPGKERELVARITENGGITYYADSVKGRFTISRDNAKNTVYLQMNSLKPEDTAVYYCNTVQYRNEMGYWGQGTQVTVSS | high polyreactivity |
| QVQLVESGGGLVQAGGSLRLSCAASGSTFYVNAMGWYRQAPGKERELVATISSGGSTNYADSVKGRFTISRDNAKNTVYLQMNSLKPEDTAVYYCAKEYGSIIPYDYWGQGTQVSVSS | low polyreactivity |
| QVQLVESGGGLVQAGGSLRLSCAASGSTFYVNDMGWYRQAPGKERELVATISSGSSTYYADSVKGRFTISRDNAKNTVYFQMNSLKPEDTAVYYCAADGVAEEGFDAPYDYWGQGTQVTVSS | low polyreactivity |
| QVQLVESGGGLVQAGGSLRLSCAASGSTFYVNTMGWYRQAPGKERELVAAITDSGVGTYADSVKGRFTISRDNAKNTVYLQMNSLKPEDTAVYYCAADGVTRDYDYWGQGTQVTVSS | low polyreactivity |
